Test results from publication PMC9503767, “Site-Differentiated Iron–Sulfur Cluster Ligation Affects Flavin-Based Electron Bifurcation Activity” (Metabolites, 2022).

Substrate: NC(=O)C1=CN([C@@H]2O[C@H](COP(=O)(O)OP(=O)(O)OC[C@H]3O[C@@H](n4cnc5c(N)ncnc54)[C@H](OP(=O)(O)O)[C@@H]3O)[C@@H](O)[C@H]2O)C=CC1
Experiment: purified protein
Assay type: biochemical, Pyrococcus furiosus
Conditions: FAD; two [4Fe-4S] clusters oxidized by L-FAD

B1: NfnL (large subunit of NADH-dependent reduced-ferredoxin: NADP+ oxidoreductase NfnSL) (Pyrococcus furiosus DSM 3638) (protein)
chain: MPRLIKDRVPTPERSVGERVRDFGEVNLGYSWELALREAERCLQCPVEYAPCIKGCPVHINIPGFIKALRENRDNPSKAVREALRIIWRDNTLPAITGRVCPQEEQCEGACVVGKVGDPINIGKLERFVADYAREHGIDDELLLEEIKGIKRNGKKVAIIGAGPAGLTCAADLAKMGYEVTIYEALHQPGGVLIYGIPEFRLPKEIVKKELENLRRLGVKIETNVLVGKTITFEELREEYDAIFIGTGAGTPRIYPWPGVNLNGIYSANEFLTRINLMKAYKFPEYDTPIKVGKRVAVIGGGNTAMDAARSALRLGAEVWILYRRTRKEMTAREEEIKHAEEEGVKFMFLVTPKRFIGDENGNLKAIELEKMKLGEPDESGRRRPIPTGETFIMEFDTAIIAIGQTPNKTFLETVPGLKVDEWGRIVVDENLMTSIPGVFAGGDAIRGEATVILAMGDGRKAAKAIHQYLSKEK
notes: isolated NfnL-WT subunit
Q: Which results are given for B1?
A: Km: 1300 ± 100 µM; Vmax: 3000 µM/min; kcat: 2.3 ± 0.3 s⁻¹; kcat/Km: 1700 ± 300 M⁻¹ s⁻¹
